Source: IntAct's records for PubMed 16820411

B1: Intercellular adhesion molecule 5 (Homo sapiens), Q9UMF0 (parent)
chain: MPGPSPGLRRALLGLWAALGLGLFGLSAVSQEPFWADLQPRVAFVERGGSLWLNCSTNCPRPERGGLETSLRRNGTQRGLRWLARQLVDIREPETQPVCFFRCARRTLQARGLIRTFQRPDRVELMPLPPWQPVGENFTLSCRVPGAGPRASLTLTLLRGAQELIRRSFAGEPPRARGAVLTATVLARREDHGANFSCRAELDLRPHGLGLFENSSAPRELRTFSLSPDAPRLAAPRLLEVGSERPVSCTLDGLFPASEARVYLALGDQNLSPDVTLEGDAFVATATATASAEQEGARQLVCNVTLGGENRETRENVTIYSFPAPLLTLSEPSVSEGQMVTVTCAAGAQALVTLEGVPAAVPGQPAQLQLNATENDDRRSFFCDATLDVDGETLIKNRSAELRVLYAPRLDDSDCPRSWTWPEGPEQTLRCEARGNPEPSVHCARSDGGAVLALGLLGPVTRALSGTYRCKAANDQGEAVKDVTLTVEYAPALDSVGCPERITWLEGTEASLSCVAHGVPPPDVICVRSGELGAVIEGLLRVAREHAGTYRCEATNPRGSAAKNVAVTVEYGPRFEEPSCPSNWTWVEGSGRLFSCEVDGKPQPSVKCVGSGGATEGVLLPLAPPDPSPRAPRIPRVLAPGIYVCNATNRHGSVAKTVVVSAESPPEMDESTCPSHQTWLEGAEASALACAARGRPSPGVRCSREGIPWPEQQRVSREDAGTYHCVATNAHGTDSRTVTVGVEYRPVVAELAASPPGGVRPGGNFTLTCRAEAWPPAQISWRAPPGALNIGLSSNNSTLSVAGAMGSHGGEYECAATNAHGRHARRITVRVAGPWLWVAVGGAAGGAALLAAGAGLAFYVQSTACKKGEYNVQEAESSGEAVCLNGAGGGAGGAAGAEGGPEAAGGAAESPAEGEVFAIQLTSA

Variants of: B1
Settings: with actn1_chick ACTN1, P05094
Sequence of actn1_chick ACTN1, P05094 (P05094 whole entry): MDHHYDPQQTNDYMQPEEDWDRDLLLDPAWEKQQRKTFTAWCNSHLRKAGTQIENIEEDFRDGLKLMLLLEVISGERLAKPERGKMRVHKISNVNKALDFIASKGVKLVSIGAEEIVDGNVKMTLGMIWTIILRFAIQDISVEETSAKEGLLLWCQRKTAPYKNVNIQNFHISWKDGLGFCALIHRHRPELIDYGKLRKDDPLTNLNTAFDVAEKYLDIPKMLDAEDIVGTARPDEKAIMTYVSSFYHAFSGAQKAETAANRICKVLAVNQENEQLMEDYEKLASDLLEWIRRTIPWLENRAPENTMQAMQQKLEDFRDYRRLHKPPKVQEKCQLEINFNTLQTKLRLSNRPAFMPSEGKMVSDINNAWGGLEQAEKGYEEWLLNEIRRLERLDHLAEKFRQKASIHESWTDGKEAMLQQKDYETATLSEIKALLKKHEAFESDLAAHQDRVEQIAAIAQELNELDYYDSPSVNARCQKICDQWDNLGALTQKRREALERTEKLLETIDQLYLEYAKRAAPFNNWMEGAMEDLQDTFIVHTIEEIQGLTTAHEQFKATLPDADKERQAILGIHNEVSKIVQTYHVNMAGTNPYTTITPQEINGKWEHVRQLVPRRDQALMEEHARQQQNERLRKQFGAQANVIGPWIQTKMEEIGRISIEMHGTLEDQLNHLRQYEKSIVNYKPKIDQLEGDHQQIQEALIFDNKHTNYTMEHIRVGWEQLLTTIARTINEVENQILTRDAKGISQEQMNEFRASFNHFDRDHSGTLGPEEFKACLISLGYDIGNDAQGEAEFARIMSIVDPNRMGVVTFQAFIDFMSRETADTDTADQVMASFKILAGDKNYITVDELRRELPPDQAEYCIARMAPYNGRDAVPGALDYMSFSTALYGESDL

Row | effect of a mutation on the interaction | Variant
1 | disrupting interaction | K866A;K867A
2 | decreasing interaction | K866R
3 | decreasing interaction | K866A
4 | disrupting interaction | K867A
5 | decreasing interaction | K867R
